# Biological target: human dipeptidyl peptidase 4 (DPP4) expressed by cells (human) (UniProt P27487)
# Assay: cell-based or functional assay
# UniProt P27487, sequence (P27487 whole entry): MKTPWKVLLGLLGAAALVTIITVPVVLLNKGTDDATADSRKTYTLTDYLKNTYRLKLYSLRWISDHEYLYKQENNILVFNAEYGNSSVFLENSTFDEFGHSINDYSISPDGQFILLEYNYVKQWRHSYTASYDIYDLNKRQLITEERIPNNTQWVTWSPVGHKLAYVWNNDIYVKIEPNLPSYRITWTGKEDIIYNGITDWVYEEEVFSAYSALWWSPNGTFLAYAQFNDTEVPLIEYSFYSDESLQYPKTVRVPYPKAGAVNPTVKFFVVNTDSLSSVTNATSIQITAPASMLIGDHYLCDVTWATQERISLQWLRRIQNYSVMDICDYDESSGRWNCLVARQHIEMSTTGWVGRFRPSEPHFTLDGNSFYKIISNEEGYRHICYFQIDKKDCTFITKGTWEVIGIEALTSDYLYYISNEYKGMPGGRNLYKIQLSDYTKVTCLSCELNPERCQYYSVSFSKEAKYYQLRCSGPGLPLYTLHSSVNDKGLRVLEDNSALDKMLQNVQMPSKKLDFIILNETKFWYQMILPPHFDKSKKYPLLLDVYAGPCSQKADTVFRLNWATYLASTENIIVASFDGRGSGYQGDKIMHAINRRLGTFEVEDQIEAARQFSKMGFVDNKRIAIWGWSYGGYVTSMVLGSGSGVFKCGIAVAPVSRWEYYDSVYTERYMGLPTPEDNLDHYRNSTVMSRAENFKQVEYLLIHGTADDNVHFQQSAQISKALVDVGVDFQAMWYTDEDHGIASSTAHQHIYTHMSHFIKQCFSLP
substance,measurement,value
S377-588-Fc (residues 377-588 of MERS-CoV S protein fused to Fc of human IgG) (Fc fusion),inhibition of CPE formation caused by MERS-CoV infection in Calu-3 cells,3 µg/mL
